B1: toripalimab Fab L.P100F (Fab, V domains shown)
VH: QGQLVQSGAEVKKPGASVKVSCKASGYTFTDYEMHWVRQAPIHGLEWIGVIESETGGTAYNQKFKGRVTITADKSTSTAYMELSSLRSEDTAVYYCAREGITTVATTYYWYFDVWGQGTTVTVSS
VL: DVVMTQSPLSLPVTLGQPASISCRSSQSIVHSNGNTYLEWYLQKPGQSPQLLIYKVSNRFSGVPDRFSGSGSGTDFTLKISRVEAEDVGVYYCFQGSHVFLTFGQGTKLEIK
notes: as the heavy chain of Sm3; light chain of Sm3 with this change; numbers count from the chain's first residue; source: Brevibacillus, culture supernatant (ammonium sulfate precipitate); not shown: 6xHis, C-terminal, kept; 6xHN, C-terminal, kept
B2: toripalimab Fab L.P100K (Fab, V domains shown)
VH: B1 VH
VL: B1 VL with F100K
notes: as for B1
B3: toripalimab Fab L.P100Y (Fab, V domains shown)
VH: B1 VH
VL: B1 VL with F100Y
notes: as for B1
B4: toripalimab Fab L.L101E (Fab, V domains shown)
VH: B1 VH
VL: B1 VL with F100P, L101E
notes: as for B1
B5: toripalimab Fab L.P100W (Fab, V domains shown)
VH: B1 VH
VL: B1 VL with F100W
notes: as for B1
B6: toripalimab Fab L.L101F (Fab, V domains shown)
VH: B1 VH
VL: B1 VL with F100P, L101F
notes: as for B1
B7: toripalimab Fab L.L101D (Fab, V domains shown)
VH: B1 VH
VL: B1 VL with F100P, L101D
notes: as for B1
B8: toripalimab Fab L.P100S (Fab, V domains shown)
VH: B1 VH
VL: B1 VL with F100S
notes: as for B1
B9: toripalimab Fab L.P100V (Fab, V domains shown)
VH: B1 VH
VL: B1 VL with F100V
notes: as for B1
B10: toripalimab Fab L.P100R (Fab, V domains shown)
VH: B1 VH
VL: B1 VL with F100R
notes: as for B1
B11: toripalimab Fab L.P100Q (Fab, V domains shown)
VH: B1 VH
VL: B1 VL with F100Q
notes: as for B1
B12: toripalimab Fab L.P100L (Fab, V domains shown)
VH: B1 VH
VL: B1 VL with F100L
notes: as for B1
B13: toripalimab Fab H.S53Y (Fab, V domains shown)
VH: B1 VH with S53Y
VL: B1 VL with F100P
notes: heavy chain of Sm3 with this change; numbers count from the chain's first residue; as the light chain of Sm3; source: Brevibacillus, culture supernatant (ammonium sulfate precipitate); not shown: 6xHis, C-terminal, kept; 6xHN, C-terminal, kept
B14: toripalimab Fab L.P100G (Fab, V domains shown)
VH: B1 VH
VL: B1 VL with F100G
notes: as for B1
B15: toripalimab Fab L.P100N (Fab, V domains shown)
VH: B1 VH
VL: B1 VL with F100N
notes: as for B1
B16: toripalimab Fab L.P100T (Fab, V domains shown)
VH: B1 VH
VL: B1 VL with F100T
notes: as for B1
B17: toripalimab Fab L.P100H (Fab, V domains shown)
VH: B1 VH
VL: B1 VL with F100H
notes: as for B1
B18: toripalimab Fab L.L101A (Fab, V domains shown)
VH: B1 VH
VL: B1 VL with F100P, L101A
notes: as for B1
B19: toripalimab Fab L.P100I (Fab, V domains shown)
VH: B1 VH
VL: B1 VL with F100I
notes: as for B1
B20: toripalimab Fab L.P100M (Fab, V domains shown)
VH: B1 VH
VL: B1 VL with F100M
notes: as for B1
B21: toripalimab Fab H.S53A (Fab, V domains shown)
VH: B1 VH with S53A
VL: B1 VL with F100P
notes: as for B13

The source of these data is publication PMC10663500, “High-throughput analysis system of interaction kinetics for data-driven antibody design” (Scientific Reports, 2023).

One may read the Kd as the concentration at which binding is half-saturated. The term koff denotes the first-order rate constant of dissociation. For orientation: kon means a measure of how fast the partners come together. Low readings indicate slow association, high ones fast association.

Where a chain is given by its changes, count along the chain named. Some results are limits rather than exact numbers.

T2 sequence (Q15116 24-167 C93S): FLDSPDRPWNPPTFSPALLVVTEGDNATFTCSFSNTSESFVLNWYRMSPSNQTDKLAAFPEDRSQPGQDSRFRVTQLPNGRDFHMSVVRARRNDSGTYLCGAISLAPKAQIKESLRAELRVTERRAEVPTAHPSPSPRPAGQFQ

The target in one assay is T1, mouse programmed cell death protein 1 Fc fusion protein (mPD-1-Fc), mPD-1 C60S (aa 25-167) (Mus musculus, UniProt Q02242, stabilised).
T1 construct: not cleaved; source: Expi293F, purified (Protein A, SEC; dimeric fraction); not shown: Fc (human), C-terminal, kept
The experiment in a line: SPR; Carterra LSA; Fab from the ammonium sulfate precipitate of the culture supernatant immobilised on a NiHC200M chip; hPD-1 (1-1024 nM) or mPD-1-Fc (4-1024 nM) as analyte, fourfold dilution series, no regeneration; HBS-EP pH 7.4, 25 °C; medians over the spots of a construct, KD = koff/kon. To be noted: one partner purified. A digest of the protocol:
(§1)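 Fabs, ammonium sulfate-precipitated from Brevibacillus supernatants and redissolved in HBS-EP, were captured in duplicate on a NiHC200M chip on a Carterra LSA at 25 °C. Fourfold series of human PD-1 (1–1024 nM) or mouse PD-1-Fc (4–1024 nM) were run without regeneration, with association for 10 min and dissociation for 5 min. Rates were fitted with the kdka model, choosing the better of slow- or fast-dissociation settings, and unconfirmed binders were given kon 10^3 […] and koff 10^−2 s^−1. The dissociation constant KD is koff/kon based on per-construct medians.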
B1 registered a Kd below 1.08 nM, a koff below 1e-05 s⁻¹ and an on-rate constant (kon) of 9270 M⁻¹ s⁻¹.
In turn, B2 had a dissociation constant Kd of 60.6 nM, a koff of 0.000824 s⁻¹ and a kon of 13600 M⁻¹ s⁻¹.
With B3, binding was put at a Kd of 1.79 nM, the off-rate (koff) stood at 3.62e-05 s⁻¹ and the kon amounted to 20200 M⁻¹ s⁻¹.
In the same order, the values of B4 are 95.6 nM, 0.00392 s⁻¹ and 41000 M⁻¹ s⁻¹.
Take B5: the equilibrium dissociation constant (Kd) was 3.6 nM, the koff was 3.39e-05 s⁻¹ and the kon stood at 9410 M⁻¹ s⁻¹.
Consider B6, for which the equilibrium dissociation constant (Kd) worked out at 1020 nM, the koff is 0.0615 s⁻¹ and the kon amounted to 60300 M⁻¹ s⁻¹.
Take B7: the Kd came to 172 nM, the off-rate constant (koff) is 0.0046 s⁻¹ and the kon worked out at 26800 M⁻¹ s⁻¹.
In the same order, the values of B8 are 45.9 nM, 0.00105 s⁻¹ and 22900 M⁻¹ s⁻¹.
Turning to B9, the dissociation constant Kd is 30.1 nM, the off-rate constant (koff) was 0.000479 s⁻¹ and the kon stood at 15900 M⁻¹ s⁻¹.
The like results for B10 were, in that order, 24.7 nM, 0.000274 s⁻¹ and 11100 M⁻¹ s⁻¹.
The molecule B11 returned a Kd of 8.31 nM, a koff of 9.77e-05 s⁻¹ and an on-rate (kon) of 11800 M⁻¹ s⁻¹.
Consider B12, for which the equilibrium dissociation constant (Kd) was determined as 9.99 nM, the koff was 0.000147 s⁻¹ and the association rate constant (kon) worked out at 14700 M⁻¹ s⁻¹.
Molecule B13 returned an equilibrium dissociation constant (Kd) of 187 nM, an off-rate constant (koff) of 0.00628 s⁻¹ and a kon of 33500 M⁻¹ s⁻¹.
In the case of B14, the Kd was determined as 22.8 nM, the koff came out at 0.000384 s⁻¹ and the kon was determined as 16800 M⁻¹ s⁻¹.
B15 came in with a Kd of 15.9 nM, a koff of 0.0003 s⁻¹ and a kon of 18900 M⁻¹ s⁻¹.
The like results for B16 were, in that order, 19.4 nM, 0.000259 s⁻¹ and 13400 M⁻¹ s⁻¹.
Molecule B17 registered a Kd below 1.06 nM, an off-rate (koff) below 1e-05 s⁻¹ and a kon of 9460 M⁻¹ s⁻¹.
On to B18, for which the dissociation constant Kd came to 26.6 nM, the koff was found to be 0.000225 s⁻¹ and the kon was 8470 M⁻¹ s⁻¹.
For the molecule B19, the affinity, expressed as Kd, was 23.2 nM; the off-rate (koff) was 0.000324 s⁻¹; the on-rate constant (kon) turned out to be 13900 M⁻¹ s⁻¹.
In the case of B20, the Kd worked out at 8.48 nM, the koff amounted to 0.000121 s⁻¹ and the kon came to 14200 M⁻¹ s⁻¹.
For B21, the dissociation constant (Kd) worked out at 94 nM, the koff turned out to be 0.00411 s⁻¹ and the on-rate (kon) is 43700 M⁻¹ s⁻¹.

Another assay addresses T2, human programmed cell death protein 1 (hPD-1) C93S (aa 24-167) (Homo sapiens, UniProt Q15116, C93S).
T2 construct: made as a fusion with a TEV site and human Fc; the Fc was cut off with TEV protease; source: Expi293F, purified (Protein A, TEV cleavage of Fc, SEC; monomer fractions); not shown: Fc (human), C-terminal, cleaved
Described as above. To be noted: one partner purified. In a few lines:
as §1
Molecule B1 displayed a Kd of 9 nM, a koff of 6.35e-05 s⁻¹ and a kon of 7060 M⁻¹ s⁻¹.
Molecule B2 had a Kd of 7.78 nM, a koff of 5.19e-05 s⁻¹ and a kon of 6670 M⁻¹ s⁻¹.
The molecule B3 returned a Kd below 0.355 nM, a koff below 1e-05 s⁻¹ and a kon of 28200 M⁻¹ s⁻¹.
B4 gave an equilibrium dissociation constant (Kd) of 13.6 nM, an off-rate constant (koff) of 0.000124 s⁻¹ and a kon of 9060 M⁻¹ s⁻¹.
The like results for B5 were, in that order, below 1.54 nM, below 1e-05 s⁻¹ and 6510 M⁻¹ s⁻¹.
In the same order, the values of B6 are 7.96 nM, 0.000141 s⁻¹ and 17700 M⁻¹ s⁻¹.
For B7, the Kd is below 1.66 nM, the koff was below 1e-05 s⁻¹ and the kon came to 6020 M⁻¹ s⁻¹.
In the same order, the values of B8 are below 1.59 nM, below 1e-05 s⁻¹ and 6280 M⁻¹ s⁻¹.
B9: binding was put at a Kd of 7.83 nM, the koff is 6.3e-05 s⁻¹ and the kon amounted to 8040 M⁻¹ s⁻¹.
B10 registered a Kd of 2.13 nM, a koff of 1.32e-05 s⁻¹ and an on-rate constant (kon) of 6230 M⁻¹ s⁻¹.
Molecule B11 came in with an equilibrium dissociation constant (Kd) of 9.25 nM, a koff of 7.95e-05 s⁻¹ and an on-rate (kon) of 8600 M⁻¹ s⁻¹.
The like results for B12 were, in that order, 13.8 nM, 0.000129 s⁻¹ and 9280 M⁻¹ s⁻¹.
As to B13, the Kd was below 1.18 nM, the off-rate (koff) is below 1e-05 s⁻¹ and the on-rate constant (kon) stood at 8440 M⁻¹ s⁻¹.
As to B14, binding was put at a Kd of 4.99 nM, the dissociation rate constant (koff) stood at 3.76e-05 s⁻¹ and the kon is 7550 M⁻¹ s⁻¹.
On to B15, for which the dissociation constant Kd came out at 1.39 nM, the dissociation rate constant (koff) was 2.33e-05 s⁻¹ and the kon was 16800 M⁻¹ s⁻¹.
On to B16, for which the Kd was determined as 1.24 nM, the off-rate constant (koff) stood at 1.18e-05 s⁻¹ and the association rate constant (kon) is 9480 M⁻¹ s⁻¹.
As to B17, the Kd was 2.24 nM, the koff amounted to 1.56e-05 s⁻¹ and the kon is 6960 M⁻¹ s⁻¹.
In turn, B18 gave a dissociation constant Kd below 1.61 nM, a koff below 1e-05 s⁻¹ and a kon of 6210 M⁻¹ s⁻¹.
As to B19, binding was put at a Kd of 12.3 nM, the koff was 8.88e-05 s⁻¹ and the kon is 7200 M⁻¹ s⁻¹.
In turn, B20 yielded a dissociation constant Kd of 3.81 nM, a dissociation rate constant (koff) of 5.38e-05 s⁻¹ and a kon of 14100 M⁻¹ s⁻¹.
B21 yielded a Kd below 1.27 nM, an off-rate (koff) below 1e-05 s⁻¹ and an on-rate constant (kon) of 7880 M⁻¹ s⁻¹.
